Assay [1] has as its target HCN channels (mediating Ih) in CA1 pyramidal neurons of TRIP8b KO mice. The assay can be described thus: cell-based or functional assay.
Assay [2] concerns the target HCN1, hyperpolarization-activated cyclic nucleotide-gated channel pore-forming subunit 1, endogenous in CA1 pyramidal neurons of TRIP8b KO mice (mouse) (UniProt O88704). Description: cell-based or functional assay.
Chain of UniProt O88704 (O88704 whole entry): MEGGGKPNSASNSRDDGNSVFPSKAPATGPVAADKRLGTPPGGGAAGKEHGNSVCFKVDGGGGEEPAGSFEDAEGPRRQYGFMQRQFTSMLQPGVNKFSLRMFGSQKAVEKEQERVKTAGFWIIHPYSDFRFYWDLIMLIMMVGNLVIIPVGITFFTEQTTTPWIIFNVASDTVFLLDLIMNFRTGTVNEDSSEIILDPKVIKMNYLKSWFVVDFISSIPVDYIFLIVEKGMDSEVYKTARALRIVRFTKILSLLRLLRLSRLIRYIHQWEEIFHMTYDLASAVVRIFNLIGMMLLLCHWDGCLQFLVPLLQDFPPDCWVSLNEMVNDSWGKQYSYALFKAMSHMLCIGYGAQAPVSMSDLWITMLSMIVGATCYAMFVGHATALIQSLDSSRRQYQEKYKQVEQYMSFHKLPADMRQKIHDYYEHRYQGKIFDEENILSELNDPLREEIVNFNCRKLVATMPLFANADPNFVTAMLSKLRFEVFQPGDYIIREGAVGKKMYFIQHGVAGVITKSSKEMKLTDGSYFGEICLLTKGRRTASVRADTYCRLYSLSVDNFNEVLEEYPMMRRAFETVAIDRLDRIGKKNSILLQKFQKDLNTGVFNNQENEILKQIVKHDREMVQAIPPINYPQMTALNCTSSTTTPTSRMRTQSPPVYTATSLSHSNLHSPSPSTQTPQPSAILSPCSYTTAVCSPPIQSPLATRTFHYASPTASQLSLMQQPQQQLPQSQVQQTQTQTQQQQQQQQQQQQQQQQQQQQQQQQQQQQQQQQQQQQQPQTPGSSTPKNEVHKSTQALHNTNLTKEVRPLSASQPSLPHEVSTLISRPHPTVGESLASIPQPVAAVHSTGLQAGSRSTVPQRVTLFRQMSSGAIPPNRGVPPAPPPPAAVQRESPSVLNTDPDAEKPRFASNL

For the substance “TRIP8b(1a-4)(TPR3-N13A), expressed from AAV-TRIP8b(N13A)”, in assay [1], the Ih amplitude, voltage clamp, TRIP8b KO mice is 0.282 pA/pF and the sag ratio, somatic whole cell recordings, TRIP8b KO mice stood at 1.11. In addition, the HCN1 staining in the SLM layer of CA1, injected hemisphere scaled by contralateral hemisphere (immunohistochemistry) (fold of uninjected hemisphere) in assay [2] amounted to 0.78.
The matching figures for “TRIP8b(1a-4)(Δ58), expressed from AAV-TRIP8b(Δ58)”: 0.27 pA/pF, 1.09 and 0.98.
Take “TRIP8b(1a-4), tetratricopeptide repeat-containing Rab8b interacting protein, isoform comprised of exons 1a, 4 and 5-16, wild type, expressed from AAV-TRIP8b-IRES-eGFP”: in assay [1], the Ih amplitude, somatic voltage clamp recordings, TRIP8b KO mice was 0.68 pA/pF and the sag ratio (ΔVmax/ΔVsteady-state), whole cell recordings from eGFP positive CA1 pyramidal neurons of TRIP8b KO mice came to 1.27. Besides, the HCN1 staining in the SLM of CA1, injected hemisphere relative to uninjected hemisphere (immunohistochemistry) (fold of uninjected hemisphere) in assay [2] was determined as 1.52.
For the substance “TRIP8b(Δ58/N13A) double mutant, expressed from AAV-TRIP8b(Δ58/N13A)”, the HCN1 staining in the SLM layer of CA1, injected hemisphere scaled by contralateral hemisphere (immunohistochemistry) (fold of uninjected hemisphere) in assay [2] was found to be 0.99.

Values taken from patent US20190038707A1.
